Measurements from patent publication US20210155689A1 (SHANGHAI PHARMAEXPLORER, published 2021).
Changes are numbered by the printed parent chain.

B1: 405B8H3 (mouse antibody purified from hybridoma) (antibody, V domains shown)
VH: QVQLQQSGAELVRPGASVTLSCKASGYTFTDYEMHWVKQTPVHGLEWIGATDPETGNSAYNQKFKGKAIMTADKSSSTAYMELRSLTSEDSAVYYCISTGWNDWGQGTSLTVSS
VL: DIKMTQSPSSMYASLGERVTITCKASQDINSYLSWFQQKPGKSPKTLIYRADRLLDGVPSRFSGSGSGQDYSLTISSLEYGDMGIYYCLQYDEFPYTFGGGTKLEIK
notes: also called mAb103-405B8H3; 405B81-13
B2: 409B11E12 (mouse antibody purified from hybridoma) (antibody, V domains shown)
VH: B1 VH with P41T, G56S, N57Y, M70L, S98A
VL: B1 VL with I2L, D52N, G81E
notes: also called mAb104-409B11E12
B3: 409D4E10 (mouse antibody purified from hybridoma) (antibody, V domains shown)
VH: B1 VH with Y27N, G56D, S58T, M70L, A72T, S98T, T99S
VL: B1 VL with D52N, G81E, D92N
notes: also called mAb112-409D4E10
B4: 556F6B8 (mouse antibody purified from hybridoma) (antibody, V domains shown)
VH: RVQLKQSGPGLVQPSQSLSITCTVSGFSLIKYGVHWVRQSPGEGLEWLGVIWRGGITDYNAAFMSRLSITKDNSKSQVFFKMNSLQADDTAIYYCAKWDGPLAMDYWGQGTSVTVSS
VL: DIVMTQSHKFLSTSVGDRVSITCKASQDVGTTVAWYQQKPGQSPKLLIYWASTRHTGVPDRFTGSGSGTDFTLTISNVQSEDLADYFCQQYSSYPYTFGGGTKLEIK
notes: also called mAb123-556F6B8
B5: 105F1E10 (mouse antibody purified from hybridoma) (antibody, V domains shown)
VH: EVQLQQSGPELVKPGASVKMSCRASGYTFTDFKMHWMKQSHGKSLEWIGYIAPNNGGTAYNQKFRGKATLTVNESSNTAYMELRSLTSEDSAVYYCVDWDDVDYWGQGTTLTVSS
VL: B1 VL with P40S, D52N, L55V, G81E, D92V, Y96L, G100A, I106L
notes: also called mAb009-105F1E10
B6: 556F6B8 mouse-human chimeric antibody (antibody, V domains shown)
VH: B4 VH
VL: B4 VL
notes: also called mAb123-556F6B8; 556F8B8
B7: 105F1E10 mouse-human chimeric antibody (antibody, V domains shown)
VH: B5 VH
VL: B1 VL with P40S, D52N, L55V, G81E, D92V, Y96L, G100A, I106L
notes: also called mAb009-105F1E10
B8: 405B8H3 mouse-human chimeric antibody (antibody, V domains shown)
VH: B1 VH
VL: B1 VL
notes: also called mAb103-405B8H3
B9: 409B11E12 mouse-human chimeric antibody (antibody, V domains shown)
VH: B1 VH with P41T, G56S, N57Y, M70L, S98A
VL: B1 VL with I2L, D52N, G81E
notes: also called mAb104-409B11E12
B10: 409D4E10 mouse-human chimeric antibody (antibody, V domains shown)
VH: B1 VH with Y27N, G56D, S58T, M70L, A72T, S98T, T99S
VL: B1 VL with D52N, G81E, D92N
notes: also called mAb112-409D4E10

Target: T1, monkey LAG-3 (full length, on the cell surface) (monkey, UniProt P18627 24-525 (human entry))
T1 construct: also called HEK293-cLAG-3; monkey LAG-3 protein on the cell surface
T1 chain: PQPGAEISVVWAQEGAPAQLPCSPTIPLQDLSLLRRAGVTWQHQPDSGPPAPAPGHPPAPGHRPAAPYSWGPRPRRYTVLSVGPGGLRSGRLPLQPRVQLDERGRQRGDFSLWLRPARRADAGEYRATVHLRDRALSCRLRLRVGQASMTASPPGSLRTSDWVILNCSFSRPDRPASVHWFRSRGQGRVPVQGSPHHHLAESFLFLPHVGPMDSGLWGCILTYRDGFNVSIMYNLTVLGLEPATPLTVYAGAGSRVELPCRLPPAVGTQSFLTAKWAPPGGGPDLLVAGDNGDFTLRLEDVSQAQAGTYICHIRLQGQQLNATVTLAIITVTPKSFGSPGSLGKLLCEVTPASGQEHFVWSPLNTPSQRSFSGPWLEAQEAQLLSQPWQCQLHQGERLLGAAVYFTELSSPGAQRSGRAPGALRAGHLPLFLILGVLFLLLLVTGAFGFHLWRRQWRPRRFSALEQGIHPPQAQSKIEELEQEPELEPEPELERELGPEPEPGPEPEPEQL
Experiment: FACS, HEK293-cLAG-3; 1.600 nM
Text: (§1) The pIRES plasmid with the monkey-derived full-length gene was transfected into the HEK293 cell line to construct a HEK293 stable cell line containing monkey LAG-3 (herein referred to as HEK293-cLAG-3 stable cell line). The HEK293-hLAG-3 stable cell line and HEK293-cLAG-3 stable cell line were expanded in a T-75 cell culture flask to a 90% confluence. The medium was aspirated, and the cells were washed with HBSS (Hanks' Balanced Salt Solution) 1-2 times, then treated with a enzyme-free cell dissociation fluid (Versene solution: Life technology) and the cells were collected. The cells were washed with HBSS buffer for 1-2 times. After counted, the cells were diluted with HBSS to 1-2×10⁶ cells per ml, added with 1% goat serum blocking solution, incubated on ice for 20-30 minutes, and then washed with HBSS for 2 times by centrifugation. The collected cells were suspended in the FACS buffer (HBSS+1% BSA) to 2×10⁶ cells/ml, added as 100 microliters per well to a 96-well FACS reaction plate, added with 100 microliters per well of the antibody sample to be tested, incubated on ice for 1-2 hours. The plate was washed twice with the FACS buffer by centrifugation, added with 100 microliters of fluorescent (Alexa 488)-labeled secondary antibodies per well, and incubated on ice for 0.5-1.0 hours. The plate was washed 2-3 times with FACS buffer by centrifugation, added with 100 μl fixative solution (4% Paraformaldehyde) per well to suspend the cells. 5-10 minutes later, it was washed 1-2 times with FACS buffer by centrifugation. The cells were suspended with 100 microliters of FACS buffer, FACS (FACSCalibur, BD) was used for detection and the results were analyzed.

Point of comparison: B1, Mean fluorescence intensity 23 MFI. Against it:
- B2 — higher, 24.4 MFI
- B3 — higher, 36.1 MFI
- B4 — higher, 24.2 MFI
- B5 — lower, 15.4 MFI

Target: T2, monkey LAG-3 on cells (HEK293-cLAG-3 stable cell line) (monkey, UniProt P18627 24-525 (human entry))
T2 construct: Full-length monkey (Chinese monkey) LAG-3 gene expressed on HEK293 cells
T2 chain: T1 chain
Experiment: FACS, HEK293-cLAG-3, antibody 0.013 nM
Text: as §1

Point of comparison: B10, Mean fluorescence intensity 3.36. Against it:
- B6 — higher, 3.46
- B7 — lower, 2.89
- B8 — higher, 3.52
- B9 — higher, 3.39

Target: T2, monkey LAG-3 on cells (HEK293-cLAG-3 …)
Experiment: FACS, HEK293-cLAG-3, antibody 8.000 nM
Text: as §1

Point of comparison: B6, Mean fluorescence intensity 42.5. Against it:
- B7 — lower, 37.9
- B8 — higher, 69.3
- B9 — higher, 73.1
- B10 — higher, 61.5

Target: T3, human LAG-3 protein with hFc tag (hLAG-3-hFc protein) (human, UniProt P18627 23-450)
T3 construct: also called immunogen 1; LAG-3 extracellular domain protein; not shown: human IgG Fc fragment (hFc) of the pCpC vector
T3 sequence: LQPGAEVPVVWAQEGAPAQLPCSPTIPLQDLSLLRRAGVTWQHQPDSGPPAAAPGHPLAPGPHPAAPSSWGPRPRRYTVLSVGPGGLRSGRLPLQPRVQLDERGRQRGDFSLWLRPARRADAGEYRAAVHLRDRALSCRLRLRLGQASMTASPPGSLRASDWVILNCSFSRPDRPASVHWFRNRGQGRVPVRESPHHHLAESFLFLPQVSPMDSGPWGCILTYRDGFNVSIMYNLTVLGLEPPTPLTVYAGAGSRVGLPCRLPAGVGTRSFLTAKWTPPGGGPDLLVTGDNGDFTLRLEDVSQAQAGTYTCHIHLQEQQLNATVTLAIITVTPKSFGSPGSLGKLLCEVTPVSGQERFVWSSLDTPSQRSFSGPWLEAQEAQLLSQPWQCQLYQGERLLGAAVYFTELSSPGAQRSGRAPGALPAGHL
Experiment: FACS, blocks LAG-3-hFc binding to MHC II on Raji; 22.222 nM
Description: (§2) The FACS reaction plate incubating the Raji cells was centrifuged to discard the supernatant. The above mixture was added as 100 μl per well to Raji cells and incubated on ice for 1-2 hours. The plate was washed twice with blocking solution (PBS, 2% fetal bovine serum) by centrifugation, added with 100 microliters of fluorescent (Alexa 488)-labeled secondary antibodies per well, and incubated on ice for 1.0 hours. The plate was washed 2-3 times by centrifugation with blocking solution (PBS, 2% fetal bovine serum), added with 100 microliters of PBS per well to suspend cells, and detected using FACS (FACS Calibur, BD) and the results were analyzed. Wherein, the IgG control was murine IgG, and the data in the table is the inhibition rate (%).

Point of comparison: B3, “Inhibition rate (%)” value 95.8%. Against it:
- B1 — lower, 93.6%
- B2 — lower, 95.3%
- B4 — lower, 95.6%
- B5 — lower, 93.6%

Target: T4, LAG-3-hFc protein (human LAG-3 extracellular region with hFc tag) (human, UniProt P18627 23-450)
T4 construct: also called hLAG-3-hFc; LAG-3 protein; not shown: human IgG Fc fragment (hFc) of the pCpC vector
T4 sequence: T3 sequence
Experiment: FACS, inhibition of LAG-3-hFc binding to MHC II on Raji cells, antibody 0.274 nM
Description: as §2

Point of comparison: B7, “Inhibition rate (%)” value -10.1%. Against it:
- B6 — higher, 21.5%
- B8 — higher, 4.3%
- B9 — higher, 4.4%
- B10 — higher, 11.3%

Target: T4, LAG-3-hFc protein (human LAG-3 …)
Experiment: FACS, inhibition of LAG-3-hFc binding to MHC II on Raji cells, antibody 2.469 nM
Description: as §2

Point of comparison: B6, “Inhibition rate (%)” value 41.5%. Against it:
- B7 — lower, 8.2%
- B8 — higher, 55.8%
- B9 — higher, 59.2%
- B10 — higher, 56.7%

Target: T4, LAG-3-hFc protein (human LAG-3 …)
Experiment: FACS, inhibition of LAG-3-hFc binding to MHC II on Raji cells, antibody 200.000 nM
Description: as §2

Point of comparison: B8, “Inhibition rate (%)” value 95.2%. Against it:
- B6 — the same, 95.2%
- B7 — higher, 96%
- B9 — lower, 94.8%
- B10 — higher, 95.7%
